This experiment addresses T1, human Fc Receptor-Like 5 (FcRL5), full length, expressed on cells (human, UniProt Q96RD9 16-977).
T1 construct: also called CD307e; IRTA2
T1 sequence: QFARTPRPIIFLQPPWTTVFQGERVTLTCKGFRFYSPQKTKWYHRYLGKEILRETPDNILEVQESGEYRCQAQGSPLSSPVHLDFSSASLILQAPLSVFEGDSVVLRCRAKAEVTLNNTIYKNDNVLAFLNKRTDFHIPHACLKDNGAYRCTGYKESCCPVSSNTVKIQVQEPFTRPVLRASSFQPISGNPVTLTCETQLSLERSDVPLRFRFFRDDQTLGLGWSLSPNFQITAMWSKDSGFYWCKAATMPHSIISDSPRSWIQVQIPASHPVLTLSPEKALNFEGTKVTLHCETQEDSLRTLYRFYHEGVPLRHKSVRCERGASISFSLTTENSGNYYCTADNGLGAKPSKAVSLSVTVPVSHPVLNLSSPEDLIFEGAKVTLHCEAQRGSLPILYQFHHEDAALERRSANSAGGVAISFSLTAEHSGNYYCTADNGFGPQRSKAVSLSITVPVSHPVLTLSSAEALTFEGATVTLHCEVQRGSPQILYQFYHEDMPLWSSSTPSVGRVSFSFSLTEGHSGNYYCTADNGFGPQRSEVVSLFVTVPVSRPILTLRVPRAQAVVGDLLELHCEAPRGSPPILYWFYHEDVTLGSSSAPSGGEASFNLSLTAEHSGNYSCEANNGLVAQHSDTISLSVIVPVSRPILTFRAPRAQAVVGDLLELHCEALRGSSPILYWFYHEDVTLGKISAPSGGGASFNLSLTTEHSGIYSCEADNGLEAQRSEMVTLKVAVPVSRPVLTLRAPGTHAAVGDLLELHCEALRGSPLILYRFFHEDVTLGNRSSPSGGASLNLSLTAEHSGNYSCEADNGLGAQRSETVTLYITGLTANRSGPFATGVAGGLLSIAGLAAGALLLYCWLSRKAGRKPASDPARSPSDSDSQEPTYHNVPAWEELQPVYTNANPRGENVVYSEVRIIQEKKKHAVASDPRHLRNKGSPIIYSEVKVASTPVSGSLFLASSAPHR
The experiment can be described thus: scFv phage: ELISA on His-tag FcRL5, flow cytometry on FcRL5-overexpressing 3T3 and Raji cells. A general note: ELISA stands for enzyme-linked immunosorbent assay.

Experimental findings from patent US20230020729A1 (Memorial Sloan Kettering, published 2023) are described below.

B1: ET200-011 scFv (scFv)
scFv: QSVVTQPPSVSAAPGQRVTISCSGSSSNISIYDVSWYQQLPGTAPKLLIYGNNKRPSGIADRFSGSTSGTSATLGITGLQTGDEADYYCGTWDDSLSGGVFGGGTKLTVLGSRGGGGSGGGGSGGGGSLEMAQMQLVQSGAEVKKPGSSVKVSCEASGGTLSSYAINWVRQAPGQGLEWMGGIIPMFGTAHYAQKFQGRVTITADESTKTAYMELSSLRSEDTAVYYCARGVHYASFDHWGQGTLVTVSS
notes: VL-linker-VH; screened as scFv phage clone
In the case of B1, the binding result was “binds”.
